Reference: patent publication US20240383985A1 (published 2024)

T1: CS1-Fc (UniProt Q9NQ25 23-226)
T1 chain: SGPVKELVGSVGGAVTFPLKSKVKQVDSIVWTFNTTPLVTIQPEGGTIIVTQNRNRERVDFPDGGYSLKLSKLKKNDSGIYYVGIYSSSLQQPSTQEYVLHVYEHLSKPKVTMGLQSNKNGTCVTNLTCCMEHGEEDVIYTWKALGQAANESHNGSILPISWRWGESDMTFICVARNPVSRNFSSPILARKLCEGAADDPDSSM


Columns and labels:
[1] = biological target: T2, CD38 naturally expressed on Daudi cells (human, UniProt P28907 1-300); test: FACS; FIG. 23
[2] = biological target: T2, CD38 naturally expressed on Daudi cells; test: FACS; FIG. 24
CS1-Fc = biological target: T1, CS1-Fc; test: ELISA

| Binder | EC50 [1] | EC50 [2] | EC50 (CS1-Fc) |
| --- | --- | --- | --- |
| CS1/CD16A/IL-15 trifunctional fusion protein QP7434262 (FC wildtype) (bispecific antibody) chain 1: not shown chain 2: not shown light: DIQMTQSPSSLSASVGDRVTITCKASQDVGIAVAWYQQKPGKVPKLLIYWASTRHTGVPDRFSGSGSGTDFTLTISSLQPEDVATYYCQQYSSYPYTFGQGTKVEIKRTVAAPSVFIFPPSDEQLKSGTASVVCLLNNFYPREAKVQWKVDNALQSGNSQESVTEQDSKDSTYSLSSTLTLSKADYEKHKVYACEVTHQGLSSPVTKSFNRGEC heavy: EVQLVESGGGLVQPGGSLRLSCAASGFDFSRYWMSWVRQAPGKGLEWIGEINPDSSTINYAPSLKDKFIISRDNAKNSLYLQMNSLRAEDTAVYYCARPDGNYWYFDVWGQGTLVTVSSASTKGPSVFPLAPSSKSTSGGTAALGCLVKDYFPEPVTVSWNSGALTSGVHTFPAVLQSSGLYSLSSVVTVPSSSLGTQTYICNVNHKPSNTKVDKKVEPKSCDKTHTCPPCPAPELLGGPSVFLFPPKPKDTLMISRTPEVTCVVVDVSHEDPEVKFNWYVDGVEVHNAKTKPREEQYNSTYRVVSVLTVLHQDWLNGKEYKCKVSNKALPAPIEKTISKAKGQPREPQVYTLPPSREEMTKNQVSLSCAVKGFYPSDIAVEWESNGQPENNYKTTPPVLDSDGSFFLVSKLTVDKSRWQQGNVFSCSVMHEALHNRYTQKSLSLSPGKGGSHHHHHH |  |  | ~0.839 µg/mL |
| CS1/CD16A/IL-15 trifunctional fusion protein QP43394342 (FC with L234A/L235A mutation for eliminating function) (bispecific antibody) chain 1: not shown chain 2: not shown light: DIQMTQSPSSLSASVGDRVTITCKASQDVGIAVAWYQQKPGKVPKLLIYWASTRHTGVPDRFSGSGSGTDFTLTISSLQPEDVATYYCQQYSSYPYTFGQGTKVEIKRTVAAPSVFIFPPSDEQLKSGTASVVCLLNNFYPREAKVQWKVDNALQSGNSQESVTEQDSKDSTYSLSSTLTLSKADYEKHKVYACEVTHQGLSSPVTKSFNRGEC heavy: EVQLVESGGGLVQPGGSLRLSCAASGFDFSRYWMSWVRQAPGKGLEWIGEINPDSSTINYAPSLKDKFIISRDNAKNSLYLQMNSLRAEDTAVYYCARPDGNYWYFDVWGQGTLVTVSSASTKGPSVFPLAPSSKSTSGGTAALGCLVKDYFPEPVTVSWNSGALTSGVHTFPAVLQSSGLYSLSSVVTVPSSSLGTQTYICNVNHKPSNTKVDKKVEPKSCDKTHTCPPCPAPEAAGGPSVFLFPPKPKDTLMISRTPEVTCVVVDVSHEDPEVKFNWYVDGVEVHNAKTKPREEQYNSTYRVVSVLTVLHQDWLNGKEYKCKVSNKALPAPIEKTISKAKGQPREPQVYTLPPSREEMTKNQVSLSCAVKGFYPSDIAVEWESNGQPENNYKTTPPVLDSDGSFFLVSKLTVDKSRWQQGNVFSCSVMHEALHNRYTQKSLSLSPGKGGSHHHHHH |  |  | 1.77 µg/mL |

Next, values leading:

| EC50 [1] | EC50 [2] | EC50 (CS1-Fc) | Binder |
| --- | --- | --- | --- |
| 10.2 nM | 8.56 nM |  | QP42764325 (antibody) chain 1: DIQMTQSPSSLSASVGDRVTITCKASQDVGIAVAWYQQKPGKVPKLLIYWASTRHTGVPDRFSGSGSGTDFTLTISSLQPEDVATYYCQQYSSYPYTFGQGTKVEIKRTVAAPSVFIFPPSDEQLKSGTASVVCLLNNFYPREAKVQWKVDNALQSGNSQESVTEQDSKDSTYSLSSTLTLSKADYEKHKVYACEVTHQGLSSPVTKSFNRGEC chain 2: EVQLVESGGGLVQPGGSLRLSCAASGFDFSRYWMSWVRQAPGKGLEWIGEINPDSSTINYAPSLKDKFIISRDNAKNSLYLQMNSLRAEDTAVYYCARPDGNYWYFDVWGQGTLVTVSSASTKGPSVFPLAPSSKSTSGGTAALGCLVKDYFPEPVTVSWNSGALTSGVHTFPAVLQSSGLYSLSSVVTVPSSSLGTQTYICNVNHKPSNTKVDKKVEPKSCDKTHTCPPCPAPEAAGGPSVFLFPPKPKDTLMISRTPEVTCVVVDVSHEDPEVKFNWYVDGVEVHNAKTKPREEQYNSTYRVVSVLTVLHQDWLNGKEYKCKVSNKALPAPIEKTISKAKGQPREPQVYTLPPSREEMTKNQVSLSCAVKGFYPSDIAVEWESNGQPENNYKTTPPVLDSDGSFFLVSKLTVDKSRWQQGNVFSCSVMHEALHNRYTQKSLSLSPGK chain 3: not shown chain 4: not shown |
| 8.99 nM |  |  | QP42764279 (antibody) chain 1: DIQMTQSPSSLSASVGDRVTITCKASQDVGIAVAWYQQKPGKVPKLLIYWASTRHTGVPDRFSGSGSGTDFTLTISSLQPEDVATYYCQQYSSYPYTFGQGTKVEIKRTVAAPSVFIFPPSDEQLKSGTASVVCLLNNFYPREAKVQWKVDNALQSGNSQESVTEQDSKDSTYSLSSTLTLSKADYEKHKVYACEVTHQGLSSPVTKSFNRGEC chain 2: EVQLVESGGGLVQPGGSLRLSCAASGFDFSRYWMSWVRQAPGKGLEWIGEINPDSSTINYAPSLKDKFIISRDNAKNSLYLQMNSLRAEDTAVYYCARPDGNYWYFDVWGQGTLVTVSSASTKGPSVFPLAPSSKSTSGGTAALGCLVKDYFPEPVTVSWNSGALTSGVHTFPAVLQSSGLYSLSSVVTVPSSSLGTQTYICNVNHKPSNTKVDKKVEPKSCDKTHTCPPCPAPEAAGGPSVFLFPPKPKDTLMISRTPEVTCVVVDVSHEDPEVKFNWYVDGVEVHNAKTKPREEQYNSTYRVVSVLTVLHQDWLNGKEYKCKVSNKALPAPIEKTISKAKGQPREPQVYTLPPSREEMTKNQVSLSCAVKGFYPSDIAVEWESNGQPENNYKTTPPVLDSDGSFFLVSKLTVDKSRWQQGNVFSCSVMHEALHNRYTQKSLSLSPGK chain 3: not shown chain 4: not shown |
|  |  | 5.24 µg/mL | QP344944564368 (antibody) chain 1: not shown chain 2: MEFGLSWLFLVAILKGVQCEVQLVESGGGLVQPGGSLRLSCAASGFDFSRYWMSWVRQAPGKGLEWIGEINPDSSTINYAPSLKDKFIISRDNAKNSLYLQMNSLRAEDTAVYYCARPDGNYWYFDVWGQGTLVTVSSASTKGPSVFPLAPSSKSTSGGTAALGCLVKDYFPEPVTVSWNSGALTSGVHTFPAVLQSSGLYSLSSVVTVPSSSLGTQTYICNVNHKPSNTKVDKKVEPKSCDKTHTCPPCPAPEAAGGPSVFLFPPKPKDTLMISRTPEVTCVVVDVSHEDPEVKFNWYVDGVEVHNAKTKPREEQYNSTYRVVSVLTVLHQDWLNGKEYKCKVSNKALPAPIEKTISKAKGQPREPQVYTLPPSREEMTKNQVSLSCAVKGFYPSDIAVEWESNGQPENNYKTTPPVLDSDGSFFLVSKLTVDKSRWQQGNVFSCSVMHEALHNRYTQKSLSLSPGKGGSHHHHHH chain 3: MDMRVPAQLLGLLLLWFPGSRCDIQMTQSPSSLSASVGDRVTITCKASQDVGIAVAWYQQKPGKVPKLLIYWASTRHTGVPDRFSGSGSGTDFTLTISSLQPEDVATYYCQQYSSYPYTFGQGTKVEIKRTVAAPSVFIFPPSDEQLKSGTASVVCLLNNFYPREAKVQWKVDNALQSGNSQESVTEQDSKDSTYSLSSTLTLSKADYEKHKVYACEVTHQGLSSPVTKSFNRGEC |
